Test results reported in FireProtDB (doi:10.1093/protein/9.5.425).

Settings: Escherichia coli (strain K12); pH 9; 50 °C; Thermal; DSC; Sodium tetraborate 1 mM; reversible: yes; whole UniProt chain shown

B1: Tryptophan synthase alpha chain wild type, P0A877 (protein)
chain: MERYESLFAQLKERKEGAFVPFVTLGDPGIEQSLKIIDTLIEAGADALELGIPFSDPLADGPTIQNATLRAFAAGVTPAQCFEMLALIRQKHPTIPIGLLMYANLVFNKGIDEFYAQCEKVGVDSVLVADVPVEESAPFRQAALRHNVAPIFICPPNADDDLLRQIASYGRGYTYLLSRAGVTGAENRAALPLNHLVAKLKEYNAAPPLQGFGISAPDQVKAAIDAGAAGAISGSAIVKIIEQHINEPEKMLAALKVFVQPMKAATRS
For B1, the “heat capacity change of unfolding” value was 4.81 kcal/mol/K and the unfolding free energy was 1.17 kcal/mol.
